Patent US20200095340A1
Positions count from the first letter of the chain named.

B1: anti-DLL3 trispecific protein 4C010 (protein, part only; not given: CD3 binder and albumin binder, part only)
chain, part: EVQLVESGGGLVQPGGSLTLSCAASGSKVSFMSMAWYRQAPGKKRELVAGISADGSTDYIDSVKGRFTISRDNAKNSVYLQMNSLRAEDTAVYYCYAYRWTTRLTYWGQGTLVTVSSGGGGSGGGSGGGGSGGGSHHHHHH
B2: anti-DLL3 trispecific protein 3B07 (protein, part only; not given: anti-CD3 fragment and anti-albumin sdAb, part only)
chain, part: B1 chain, part with K28R, M32L, D58T, L104Y
B3: anti-DLL3 trispecific protein 3F05 (protein, part only; not given: CD3 binder and albumin binder, part only)
chain, part: B1 chain, part with M32L, A53T, L104R
B4: anti-DLL3 trispecific protein 4C07 (protein, part only; not given: anti-CD3 and anti-albumin domains, part only)
chain, part: B1 chain, part with M32L, T57K
B5: anti-DLL3 trispecific protein 4E08 (protein, part only; not given: anti-CD3 fragment and anti-albumin sdAb, part only)
chain, part: B1 chain, part with K28S, S30K, M32L, A53T, R99K, L104Y
B6: anti-DLL3 trispecific protein 4D06 (protein, part only; not given: anti-CD3 fragment and anti-albumin sdAb, part only)
chain, part: B1 chain, part with K28S, S30K, M32L, A53P, L104Y, T105R
B7: anti-DLL3 trispecific protein 4B02 (protein, part only; not given: CD3 binder and albumin binder, part only)
chain, part: B1 chain, part with K28R, M32L, D58T, L104F
B8: anti-DLL3 trispecific protein 3G09 (protein, part only; not given: CD3 fragment and albumin sdAb, part only)
chain, part: B1 chain, part with K28S, F31V, M32L, D61G, L104T
B9: anti-DLL3 trispecific protein 3B05 (protein, part only; not given: anti-CD3 and anti-albumin domains, part only)
chain, part: B1 chain, part with A23V, K28S, S30K, M32L, D58T, L104R
B10: anti-DLL3 trispecific protein 3F011 (protein, part only; not given: anti-CD3 and anti-albumin domains, part only)
chain, part: B1 chain, part with K28S, M32L, A53T, T101R, L104Y
B11: anti-DLL3 trispecific protein 4G011 (protein, part only; not given: anti-CD3 fragment and anti-albumin sdAb, part only)
chain, part: B1 chain, part with K28S, S30R, M32L, D61G, T101S, L104Y
B12: anti-DLL3 trispecific protein 3C09 (protein, part only; not given: anti-CD3 and anti-albumin domains, part only)
chain, part: B1 chain, part with K28S, M32L, D58I, T101R, L104Y
B13: anti-DLL3 trispecific protein 4G08 (protein, part only; not given: anti-CD3 fragment and anti-albumin sdAb, part only)
chain, part: B1 chain, part with K28S, S30R, M32L, A53T, L104Y, T105R
B14: anti-DLL3 trispecific protein 2D03 (protein, part only; not given: anti-CD3 and anti-albumin domains, part only)
chain, part: EVQLVESGGGLVQPGGSLTLSCVASGKTSSINAMGWYRRAPGKQRELVAGISSDGSKVYADSVKGRFTISRDNAKNSVYLQMNSLRAEDTAVYYCYYFRTVSGVSMRYWGQGTLVTVSSGGGGSGGGSGGGGSGGGSHHHHHH
B15: anti-DLL3 trispecific protein 1A04 (protein, part only; not given: anti-CD3 fragment and anti-albumin sdAb, part only)
chain, part: B14 chain, part with K27S, A60E, V104S
B16: anti-DLL3 trispecific protein 1D06 (protein, part only; not given: anti-CD3 fragment and anti-albumin sdAb, part only)
chain, part: B14 chain, part with K27S, G55N, S102H, V104S
B17: anti-DLL3 trispecific protein 2B012 (protein, part only; not given: anti-CD3 and anti-albumin domains, part only)
chain, part: B14 chain, part with K27T, A60N, S102R, V104S
B18: anti-DLL3 trispecific protein 2B03 (protein, part only; not given: CD3 fragment and albumin sdAb, part only)
chain, part: B14 chain, part with K27S, K57L, R99T, V104S
B19: anti-DLL3 trispecific protein 1A01 (protein, part only; not given: anti-CD3 and anti-albumin domains, part only)
chain, part: B14 chain, part with K27F, K57F, T100H, V104S
B20: anti-DLL3 trispecific protein 1B010 (protein, part only; not given: CD3 fragment and albumin sdAb, part only)
chain, part: B14 chain, part with K27S, S30R, V101K, V104S
B21: anti-DLL3 trispecific protein 2C010 (protein, part only; not given: CD3 binder and albumin binder, part only)
chain, part: B14 chain, part with K27S, S30K, G55R, S102A, V104S
B22: anti-DLL3 trispecific protein 2B05 (protein, part only; not given: anti-CD3 fragment and anti-albumin domain, part only)
chain, part: B14 chain, part with K27T, S56T, R99H, V104S
B23: anti-DLL3 trispecific protein 1E07 (protein, part only; not given: anti-CD3 fragment and anti-albumin sdAb, part only)
chain, part: B14 chain, part with K27S, G35A, A60N, S102R, V104S, M106Q
B24: anti-DLL3 trispecific protein 2A08 (protein, part only; not given: anti-CD3 and anti-albumin domains, part only)
chain, part: B14 chain, part with K27S, S29K, A60R, V101S, V104S
B25: anti-DLL3 trispecific protein 1E02 (protein, part only; not given: anti-CD3 fragment and anti-albumin sdAb, part only)
chain, part: B14 chain, part with K27Q, K57Q, V101K, V104S
B26: anti-DLL3 trispecific protein 1C011 (protein, part only; not given: anti-CD3 fragment and anti-albumin domain, part only)
chain, part: B14 chain, part with K27T, A60E, V104S
B27: anti-DLL3 trispecific protein 1C07 (protein, part only; not given: anti-CD3 fragment and anti-albumin sdAb, part only)
chain, part: B14 chain, part with K27S, G35A, V104S
B28: anti-DLL3 trispecific protein 2D010 (protein, part only; not given: CD3 binder and albumin binder, part only)
chain, part: B14 chain, part with K27S, V101K, V104S

biological target: biotinylated human DLL3 protein expressed as a human IgG1 fusion protein (human) (UniProt Q9NYJ7); assay: Octet BLI; biotinylated huDLL3-IgG1 fusion on streptavidin tips; single 50 nM; conditioned medium
Sequence (Q9NYJ7 other isoform, or with tags, fused parts or gaps): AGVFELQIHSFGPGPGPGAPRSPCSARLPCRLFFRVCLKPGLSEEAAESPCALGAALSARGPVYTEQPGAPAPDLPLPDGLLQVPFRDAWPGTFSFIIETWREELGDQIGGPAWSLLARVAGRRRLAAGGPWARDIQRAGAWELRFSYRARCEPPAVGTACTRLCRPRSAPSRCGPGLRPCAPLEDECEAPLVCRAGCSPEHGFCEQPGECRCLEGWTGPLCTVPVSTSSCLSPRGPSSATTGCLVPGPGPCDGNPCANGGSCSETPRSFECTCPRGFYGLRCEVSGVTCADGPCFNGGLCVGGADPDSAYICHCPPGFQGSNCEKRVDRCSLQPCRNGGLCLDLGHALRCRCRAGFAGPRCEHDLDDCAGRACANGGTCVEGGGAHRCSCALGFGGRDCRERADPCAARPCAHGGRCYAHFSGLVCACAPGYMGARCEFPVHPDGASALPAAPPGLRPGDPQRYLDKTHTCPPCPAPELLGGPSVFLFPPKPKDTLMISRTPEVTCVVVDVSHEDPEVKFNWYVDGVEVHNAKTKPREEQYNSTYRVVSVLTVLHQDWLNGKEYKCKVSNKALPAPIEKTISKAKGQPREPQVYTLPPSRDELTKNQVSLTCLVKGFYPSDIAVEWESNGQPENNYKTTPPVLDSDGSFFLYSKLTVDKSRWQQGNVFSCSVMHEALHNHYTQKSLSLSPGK

Row | Kd [nM] | Binder
1 | 7 | B1
2 | 7.3 | B2
3 | 7.5 | B3
4 | 7.5 | B4
5 | 7.2 | B5
6 | 7.5 | B6
7 | 7.1 | B7
8 | 7.3 | B8
9 | 7.2 | B9
10 | 7.1 | B10
11 | 7.5 | B11
12 | 7.8 | B12
13 | 7.6 | B13
14 | 6.8 | B14
15 | 7.8 | B15
16 | 6.8 | B16
17 | 7.3 | B17
18 | 7.6 | B18
19 | 7 | B19
20 | 6.8 | B20
21 | 7.6 | B21
22 | 7.4 | B22
23 | 7.1 | B23
24 | 7.7 | B24
25 | 7 | B25
26 | 7.6 | B26
27 | 7.1 | B27
28 | 7.3 | B28
